Laboratory results: the supplement of paper PMC5998384

Test system: HeLa Kyoto
Assay: melting temperature (median over replicates), in situ; higher = more thermally stable
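Also: HeLa Kyoto cells synchronized by double thymidine or nocodazole block, proteins quantified by TMT10plex mass spectrometry, three independent biological replicates.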

| Sequence | melting temperature (cell cycle stage: mitosis) | melting temperature (cell cycle stage: G1/S) |
| --- | --- | --- |
| MAAAAAGLGGGGAGPGPEAGDFLARYRLVSNKLKKRFLRKPNVAEAGEQFGQLGRELRAQECLPYAAWCQLAVARCQQALFHGPGEALALTEAARLFLRQERDARQRLVCPAAYGEPLQAAASALGAAVRLHLELGQPAAAAALCLELAAALRDLGQPAAAAGHFQRAAQLQLPQLPLAALQALGEAASCQLLARDYTGALAVFTRMQRLAREHGSHPVQSLPPPPPPAPQPGPGATPALPAALLPPNSGSAAPSPAALGAFSDVLVRCEVSRVLLLLLLQPPPAKLLPEHAQTLEKYSWEAFDSHGQESSGQLPEELFLLLQSLVMATHEKDTEAIKSLQVEMWPLLTAEQNHLLHLVLQETISPSGQGV [F8A1] | 50.9 °C | – |
| MAAAELADTQLMLGVGLIEKDTNGEVLWVWCYPSTTATLRNLLLRKCCLTDENKLLHPFVFGQYRRTWFYITIIEVPDSSILKKVTHFSIVLTAKDFNPEKYAAFTRILCRMYLKHGSPVKMMESYIAVLTKGICQSEENGSFLSKDFDARKAYPAGSIKDIVSQFGMETVILHTALMLKKRIVVYHPKIEAVQEFTRTLPALVWHRQDWTILHSYVHLNADELEALQMCTGYVAGFVDLEVSNRPDLYDVFVNLAESEITIAPLAKEAMAMGKLHKEMGQLIVQSAEDPEKSESQVIQDIALKTREIFTNLAPFSEVSADGEKRVLNLEALKQKRFPPATENFLYHLAAAEQMLKI [FAM45BP] | 50.5 °C | 50.6 °C |
| MAAEADGPLKRLLVPILLPEKCYDQLFVQWDLLHVPCLKILLSKGLGLGIVAGSLLVKLPQVFKILGAKSAEGLSLQSVMLELVALTGTMVYSITNNFPFSSWGEALFLMLQTITICFLVMHYRGQTVKGVAFLACYGLVLLVLLSPLTPLTVVTLLQASNVPAVVVGRLLQAATNYHNGHTGQLSAITVFLLFGGSLARIFTSIQETGDPLMAGTFVVSSLCNGLIAAQLLFYWNAKPPHKQKKAQ [MPDU1] | 59.2 °C | 59.2 °C |
| MAEEEGPPVELRQRKKPKSSENKESAKEEKISDIPIPERAPKHVLFQRFAKIFIGCLAAVTSGMMYALYLSAYHERKFWFSNRQELEREITFQGDSAIYYSYYKDMLKAPSFERGVYELTHNNKTVSLKTINAVQQMSLYPELIASILYQATGSNEIIEPVYFYIGIVFGLQGIYVTALFVTSWLMSGTWLAGMLTVAWFVINRVDTTRIEYSIPLRENWALPYFACQIAALTGYLKSNLNTYGERFCYLLMSASTYTFMMMWEYSHYLLFLQAISLFLLDTFSVEQSDKVYEVYKIYIFSLFLGYLLQFENPALLVSPLLSLVAALMLAKCLQLNVKKGSFVAKIIKVINFYLVCTLTITLNIIMKMFVPHKENGHMLKFLEVKFGLNMTKNFTMNWLLCQESLQAPSQDFFLRLTQSSLLPFYILVLIICFLSMLQVIFRRINGKSLKETVTLEDGRIGERPEIIYHVIHTILLGSLAMVIEGLKYIWIPYVCMLAAFGVCSPELWMTLFKWLRLRTVHPILLALILSMAVPTIIGLSLWKEFFPRLMTELMELQEFYDPDTVELMTWIKRQAPVAAVFAGSPQLMGAIKLCTGWMVTSLPLYNDDDLLKRNENIYQIYSKRSAEDIYKILTSYKANYLIVEDAICNEVGPMRGCRVKDLLDIANGHMVCEEGDKLTYSKYGRFCHEVKINYSPYVNYFTRVYWNRSYFVYKINTVISFQS [DPY19L4] | 56.9 °C | 54.5 °C |
| MAEEMESSLEASFSSSGAVSGASGFLPPARSRIFKIIVIGDSNVGKTCLTYRFCAGRFPDRTEATIGVDFRERAVEIDGERIKIQLWDTAGQERFRKSMVQHYYRNVHAVVFVYDMTNMASFHSLPSWIEECKQHLLANDIPRILVGNKCDLRSAIQVPTDLAQKFADTHSMPLFETSAKNPNDNDHVEAIFMTLAHKLKSHKPLMLSQPPDNGIILKPEPKPAMTCWC [RAB33B] | 55 °C | 54.3 °C |
| MAELQMLLEEEIPGGRRALFDSYTNLERVADYCENNYIQSADKQRALEETKAYTTQSLASVAYLINTLANNVLQMLDIQASQLRRMESSINHISQTVDIHKEKVARREIGILTTNKNTSRTHKIIAPANLERPVRYIRKPIDYTILDDIGHGVKWLLRFKVSTQNMKMGGLPRTTPPTQKPPSPPMSGKGTLGRHSPYRTLEPVRPPVVPNDYVPSPTRNMAPSQQSPVRTASVNQRNRTYSSSGSSGGSHPSSRSSSRENSGSGSVGVPIAVPTPSPPSVFPAPAGSAGTPPLPATSASAPAPLVPATVPSSTAPNAAAGGAPNLADGFTSPTPPVVSSTPPTGHPVQFYSMNRPASRHTPPTIGGSLPYRRPPSITSQTSLQNQMNGGPFYSQNPVSDTPPPPPPVEEPVFDESPPPPPPPEDYEEEEAAVVEYSDPYAEEDPPWAPRSYLEKVVAIYDYTKDKEDELSFQEGAIIYVIKKNDDGWYEGVMNGVTGLFPGNYVESIMHYSE [ABI2] | 52.5 °C | 52.3 °C |
| MAGAGPTMLLREENGCCSRRQSSSSAGDSDGEREDSAAERARQQLEALLNKTMRIRMTDGRTLVGCFLCTDRDCNVILGSAQEFLKPSDSFSAGEPRVLGLAMVPGHHIVSIEVQRESLTGPPYL [NAA38] | 52.4 °C | 52.1 °C |
| MAPRGRKRKAEAAVVAVAEKREKLANGGEGMEEATVVIEHCTSURVYGRNAAALSQALRLEAPELPVKVNPTKPRRGSFEVTLLRPDGSSAELWTGIKKGPPRKLKFPEPQEVVEELKKYLS [C11ORF31] | 52.2 °C | – |
| MASRWWRWRRGCSWKPAARSPGPGSPGRAGPLGPSAAAEVRAQVHRRKGLDLSQIPYINLVKHLTSACPNVCRISRFHHTTPDSKTHSGEKYTDPFKLGWRDLKGLYEDIRKELLISTSELKEMSEYYFDGKGKAFRPIIVALMARACNIHHNNSRHVQASQRAIALIAEMIHTASLVHDDVIDDASSRRGKHTVNKIWGEKKAVLAGDLILSAASIALARIGNTTVISILTQVIEDLVRGEFLQLGSKENENERFAHYLEKTFKKTASLIANSCKAVSVLGCPDPVVHEIAYQYGKNVGIAFQLIDDVLDFTSCSDQMGKPTSADLKLGLATGPVLFACQQFPEMNAMIMRRFSLPGDVDRARQYVLQSDGVQQTTYLAQQYCHEAIREISKLRPSPERDALIQLSEIVLTRDK [PDSS1] | 51.7 °C | – |
| MEALLLGAGLLLGAYVLVYYNLVKAPPCGGMGNLRGRTAVVTGANSGIGKMTALELARRGARVVLACRSQERGEAAAFDLRQESGNNEVIFMALDLASLASVRAFATAFLSSEPRLDILIHNAGISSCGRTREAFNLLLRVNHIGPFLLTHLLLPCLKACAPSRVVVVASAAHCRGRLDFKRLDRPVVGWRQELRAYADTKLANVLFARELANQLEATGVTCYAAHPGPVNSELFLRHVPGWLRPLLRPLAWLVLRAPRGGAQTPLYCALQEGIEPLSGRYFANCHVEEVPPAARDDRAAHRLWEASKRLAGLGPGEDAEPDEDPQSEDSEAPSSLSTPHPEEPTVSQPYPSPQSSPDLSKMTHRIQAKVEPEIQLS [DHRS13] | 50 °C | – |
| MEEKQILCVGLVVLDVISLVDKYPKEDSEIRCLSQRWQRGGNASNSCTVLSLLGAPCAFMGSMAPGHVADFLVADFRRRGVDVSQVAWQSKGDTPSSCCIINNSNGNRTIVLHDTSLPDVSATDFEKVDLTQFKWIHIEGRNASEQVKMLQRIDAHNTRQPPEQKIRVSVEVEKPREELFQLFGYGDVVFVSKDVAKHLGFQSAEEALRGLYGRVRKGAVLVCAWAEEGADALGPDGKLLHSDAFPPPRVVDTLGAGDTFNASVIFSLSQGRSVQEALRFGCQVAGKKCGLQGFDGIV [KHK] | – | 54.2 °C |
| MFSLPLNCSPDHIRRGSCWGRPQDLKIAAPAWNSKCHPGAGAAMARQHARTLWYDRPRYVFMEFCVEDSTDVHVLIEDHRIVFSCKNADGVELYNEIEFYAKVNSKPVWLSVDFDNWRDWEGDEEMELAHVEHYAELLKKVSTKRPPPAMDDLDDDSDSADDATSN [PTGES3L] | 49.9 °C | 49.8 °C |
